± gives the uncertainty stated by the source.

The data set can be described thus: amyloid nucleation score (Sup35N fusion, yeast selection) (log enrichment); library NNK2; higher = more nucleation; inactive = no reads after selection. Put shortly: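 On medium lacking adenine and uracil, psi-negative yeast expressing peptides of 20 random codons fused to Sup35N were grown 7 days at 30°C after a 24-hour induction with 100 μM copper sulfate. Illumina sequencing of input and output plasmid inserts gave the reads, and sequences under 100 input reads were excluded. The nucleation score is the DiMSum log enrichment of output over input reads, centred on the mode score of non-aggregating sequences.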
For the substance GVKSFGVFGSMYWILMFSKA, the amyloid nucleation score is -0.495 ± 0.48.
Substance FEQRGVTSRLCSPLSYEERM registered an amyloid nucleation score of -0.82 ± 0.3.
As for YDVSYYCNCIAVLKSRLREL, the amyloid nucleation score was 5.203 ± 0.031.
In turn, NSGARSTSLVNVWVLYLLDR showed an amyloid nucleation score of 6.414 ± 0.055.
On to WSCYKNWG, for which the amyloid nucleation score is -1.13 ± 0.5.
For KWDWICSVRCRVRSAYQMSN, the amyloid nucleation score result was “inactive”.
Substance NNSWTDLRCVIYMSITGEPH showed an amyloid nucleation score of 8.633 ± 0.044.
In turn, HYCVIEKRSHIG returned an amyloid nucleation score of -0.739 ± 0.64.
Regarding YGQSRANDTDDPGWGTVMRL, the amyloid nucleation score worked out at 0.3 ± 0.74.
In turn, LVLWM displayed an amyloid nucleation score of 1.68 ± 0.36.
Consider GYGVAWLYGISDSVRLRAPY, for which the amyloid nucleation score was 0.335 ± 0.42.
In the case of KYNLRDSNCSTCMFGSSRVS, the amyloid nucleation score was determined as 4.251 ± 0.04.
The figure for LFACFRNMLV is 0.504 ± 0.39; for WLVFQFYVRGRREMVS it is 1.4 ± 0.2; for SLWVASGQSFSDSRQRNVAG it is 2.27 ± 0.19.
For the substance PREKLYITMNMADIGSSRHP, the amyloid nucleation score was 4.86 ± 0.051.
For ALWTLNDSSPDYKSPYTGGS, the amyloid nucleation score turned out to be 0.508 ± 0.6.
The figure for MYEAAGSDREVLRKYEHSSV is -0.22 ± 0.4; for FGNRRSCHDIRSWIDRYLVR it is 1.69 ± 0.52; for NGCSYLERVYVVCYDDMAFG it is 0.336 ± 0.5.
For FRRFCQDILYICMRKDMVQG, the amyloid nucleation score was 0.833 ± 0.8.
Consider MFRGVQN, for which the amyloid nucleation score came out at 0.899 ± 0.53.
Consider CVMNF, for which the amyloid nucleation score is -0.586 ± 0.42.
Regarding LCLTR, the amyloid nucleation score is -0.307 ± 0.63.
In turn, HFSLAC registered an amyloid nucleation score of -0.91 ± 0.48.
Consider VFWSGAILLLAKCIGGMSIL, for which the amyloid nucleation score is -0.47 ± 0.32.
FMPSVFMYSLVVFRYVVYMS returned an amyloid nucleation score of -1.07 ± 0.78.
Consider YFKCGGHAFCVSNYARLNDF, for which the amyloid nucleation score was -0.573 ± 0.42.
TIYWECYMDILARSGAMWVW returned an amyloid nucleation score of -1.34 ± 0.49.
With SDVKYIGMCSCQHSFIMMGM, the amyloid nucleation score was 0.372 ± 0.36.
For TCVVIQGIRGWGWMSVSFMP, the amyloid nucleation score was -0.829 ± 0.63.
In the case of RCRFPVVIKQRDLVKEVMV it was -0.222 ± 0.46.
Substance VSVRGTHVL had an amyloid nucleation score of -0.28 ± 0.61.
The figure for KVIWIRCLFLYMCWAAHG is -0.557 ± 0.78; for WYFPSVKIIENLW it is 6.035 ± 0.038.
In the case of TLIIWLTSICVVSGFVLSGE it was 0.137 ± 0.25; in that of FLNHYWLYFQP, 5.353 ± 0.044; in that of WGKLRGIPAYDYSLTGCLYV, 0.647 ± 0.8.
On to INGWEPSIIDVIYNAHQIGP, for which the amyloid nucleation score came to 0.107 ± 0.79.
LINPCVRLWLCNCIFTFESA displayed an amyloid nucleation score of 7.872 ± 0.027.
Regarding SSRRV, the amyloid nucleation score was found to be 0.497 ± 0.56.
The substance STASLHGVMLGMRLKNPLGV came in with an amyloid nucleation score of -0.97 ± 0.63.
Take YPDDLVMPLDDQRCKARLGH: the amyloid nucleation score came to 0.665 ± 0.57.
Consider YLLWSTVSAAFSDCRGLKYG, for which the amyloid nucleation score entry is “inactive”.
As to AILLGLWCCTWFREALACLA, the amyloid nucleation score is 1.04 ± 0.29.
On to MNYRCKYAQDTHLSEQSSQE, for which the amyloid nucleation score is -0.799 ± 0.33.
In the case of SKYMRFGDTFLFARMHGKGD it was 4.49 ± 0.048; in that of TSVFFQGIALP, 8.228 ± 0.029; in that of VSDLLPVSDGSFTNPIVMLV, 0.323 ± 0.26.
In the case of GNMISERSKSSVHN, the amyloid nucleation score is -1.52 ± 1.1.
In the case of YLSIFRVLSIFCVWLHTVGN, the amyloid nucleation score entry is “inactive”.
With IDLMKLCFLLYSIGFFLPTH, the amyloid nucleation score result is “inactive”.
In turn, TPDAGMWNYECYIVTVW displayed an amyloid nucleation score of -0.615 ± 0.49.
MLWWLYLTDYSISGYNVGKM: the amyloid nucleation score was 0.433 ± 0.74.
On to EILTNQYFCRLWVMGTFYID, for which the amyloid nucleation score is -1.19 ± 1.
As to NKKIIYDQIFIRMGSFQLN, the amyloid nucleation score entry was “inactive”.
With SYFLGFVRYAVILSGMLLST, the amyloid nucleation score was -0.281 ± 0.56.
